We go through three substances from paper PMC9337993.

The target in data set [1] is SynZur (SYNW2401), zinc uptake regulator Zur from Synechococcus sp. WH8102 (Synechococcus sp. WH8102). Description: dynamic light scattering; 20 uM protein in 50 mM Tris, 25 °C; hydrodynamic diameter compared with values calculated for monomers, dimers and tetramers.
For data set [2] the target is unchanged. Briefly: native MS; native (near-native) ESI-MS, deconvoluted; WT after EDTA treatment (Zn1SynZur), Cys95Ala as purified.
The target is the same in data set [3]. Description: nondenaturing SDS-PAGE; 10% Tris-glycine gel, 50 mM Tris pH 7.3, 50 mM MOPS, 0.0375% SDS, 4 °C, 100 V.
Data set [4] has the same target. Briefly: crystal structure; X-ray, 2.1 Å, space group P65, four molecules (two dimers) in the asymmetric unit; 100 mM magnesium acetate, 100 mM MES pH 6, 16% PEG 10000, 4 °C.
Data set [5] addresses T1, Cys95Ala SynZur C95A (Synechococcus sp. WH8102) (UniProt Q7U3N0).
T1 sequence: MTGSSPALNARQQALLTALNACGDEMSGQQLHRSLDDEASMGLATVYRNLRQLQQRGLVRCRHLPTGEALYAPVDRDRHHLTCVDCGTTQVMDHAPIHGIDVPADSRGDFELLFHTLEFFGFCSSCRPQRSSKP
Briefly: EMSA. The settings on record: EMSA: 10 mM Tris pH 8, 50 mM KCl, 2 mM MgCl2, 5% glycerol, 0.05 mg/ml BSA, 1 mM DTT, 3 mM spermidine, 5 ng DNA in 10 ul, room temperature 30 min, gel at 4 C ….

For data set [6], the target named is Cys95Ala SynZur (Synechococcus sp. WH8102). Briefly: native MS; native (near-native) ESI-MS, deconvoluted; WT after EDTA treatment (Zn1SynZur), Cys95Ala as purified.
Data set [7] shares this target. Briefly: SEC; analytical SEC, Superdex 200 10/300, 0.5 ml/min; Zn2SynZur 40 uM, Cys95Ala SynZur 30 uM, in 20 mM Tris-HCl pH 8, 300 mM NaCl; methods give 50 mM Tris pH 8.0, 100 mM NaCl.

As to “SynZur (SYNW2401), zinc uptake regulator Zur from Synechococcus sp. WH8102 (natural protein)”, the stoichiometry N in data set [1], in data set [2], in data set [3] and in data set [4] was 2 each time.
With “GTTCCATCCACAGCCACAACGCTTGGCTGGGCCGCCTGCGCCGCGACTGAACAACCCGAGACAACGCCCAGGGCGACCGCCAGACCCTTGACCAAAAGCGCAGGACGCGCCATGACACTCGAATGAGAATGATTATCATTTTTACAGTTCAACGGGTTGGCGCAACCCAATCGCGACCGCATGATGAAGTGAACCCACCGCAGCTGTGACAGAACCGCATTCGTCCATCAAGGGGCATCTAGCAGCCAGGAATCTC (double strand) [PznuA promoter (znuC-znuA intergenic fragment)]”, in data set [5], the binding result was “no binding”.
In the case of Cys95Ala SynZur (natural protein), the stoichiometry N in data set [6] and in data set [7] was 2 throughout.
